The results in this text go back to US20260216326A1 (PROMETHEUS BIOSCIENCES, published 2026).

T1: TL1A in human blood (human, UniProt O95150 72-251, limits assumed)
T1 sequence (looked up): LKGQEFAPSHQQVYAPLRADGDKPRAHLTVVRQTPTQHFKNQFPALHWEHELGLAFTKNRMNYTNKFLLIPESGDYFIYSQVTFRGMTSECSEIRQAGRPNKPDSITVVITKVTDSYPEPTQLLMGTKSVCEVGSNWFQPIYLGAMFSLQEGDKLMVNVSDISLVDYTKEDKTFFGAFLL

T2: human TL1A (human, UniProt O95150 72-251, limits assumed)
T2 construct: also called tumor necrosis factor-like cytokine 1A; TNFSF15
T2 sequence (looked up): T1 sequence (looked up)

T3: TNFSF6 (FasL) (human, UniProt P48023 134-281, limits assumed)
T3 sequence (looked up): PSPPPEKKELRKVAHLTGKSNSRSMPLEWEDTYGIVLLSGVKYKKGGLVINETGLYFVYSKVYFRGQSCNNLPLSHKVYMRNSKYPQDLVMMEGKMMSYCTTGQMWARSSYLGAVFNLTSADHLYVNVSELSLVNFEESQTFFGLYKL

T4: cynomolgus monkey TL1A protein (cynomolgus monkey, UniProt G7PRK8 72-251)
T4 sequence: T1 sequence (looked up) with F39L, I78V

T5: membrane-bound human TL1A on TNFSF15/HEK293 cells (human, UniProt O95150 1-251)
T5 construct: whole, on cells; also called membrane-associated TL1A
T5 sequence (looked up): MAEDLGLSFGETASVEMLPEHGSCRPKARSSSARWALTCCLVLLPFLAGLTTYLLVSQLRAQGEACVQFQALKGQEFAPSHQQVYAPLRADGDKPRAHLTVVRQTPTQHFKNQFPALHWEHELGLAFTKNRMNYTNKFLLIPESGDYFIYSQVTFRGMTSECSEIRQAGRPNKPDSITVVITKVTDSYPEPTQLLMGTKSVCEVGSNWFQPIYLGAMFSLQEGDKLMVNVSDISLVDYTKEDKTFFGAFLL

T6: rat recombinant TL1A protein (rat, UniProt Q8K3Y7 76-252, limits assumed)
T6 construct: also called rat TL1A
T6 sequence (looked up): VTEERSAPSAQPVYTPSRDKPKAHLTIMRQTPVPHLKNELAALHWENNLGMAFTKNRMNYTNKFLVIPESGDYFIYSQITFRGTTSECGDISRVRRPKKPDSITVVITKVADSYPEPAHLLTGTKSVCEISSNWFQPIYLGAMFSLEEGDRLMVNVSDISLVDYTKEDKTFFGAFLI

T7: mouse recombinant TL1A protein (mouse, UniProt Q5UBV8 76-252, limits assumed)
T7 construct: also called mouse TL1A; murine TL1A
T7 sequence (looked up): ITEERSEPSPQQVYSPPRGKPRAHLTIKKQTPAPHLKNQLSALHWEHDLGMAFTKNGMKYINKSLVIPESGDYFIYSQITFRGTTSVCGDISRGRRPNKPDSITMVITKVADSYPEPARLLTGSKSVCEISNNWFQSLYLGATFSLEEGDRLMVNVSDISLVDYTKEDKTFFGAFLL

T8: recombinant TL1A antigen (UniProt O95150 72-251, limits assumed)
T8 sequence (looked up): T1 sequence (looked up)

T9: DR3 (Death Receptor 3) natively expressed on human TF-1 cells (human, UniProt Q93038 25-417)
T9 construct: whole, on cells; also called TNFRSF25
T9 sequence (looked up): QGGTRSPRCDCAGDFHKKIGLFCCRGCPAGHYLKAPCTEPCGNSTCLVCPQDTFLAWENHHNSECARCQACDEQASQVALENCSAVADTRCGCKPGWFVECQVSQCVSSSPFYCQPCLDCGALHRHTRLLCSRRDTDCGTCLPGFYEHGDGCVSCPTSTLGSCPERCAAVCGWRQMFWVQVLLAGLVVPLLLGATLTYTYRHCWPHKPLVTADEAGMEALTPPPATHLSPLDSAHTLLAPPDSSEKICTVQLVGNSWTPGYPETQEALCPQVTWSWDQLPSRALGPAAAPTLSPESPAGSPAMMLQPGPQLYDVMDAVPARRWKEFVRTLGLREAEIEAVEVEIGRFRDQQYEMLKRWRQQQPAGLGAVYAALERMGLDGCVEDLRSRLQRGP

B1: A212 (antibody, IgG1, V domains shown)
VH: QVQLVQSGAEVKKPGASVKVSCKASGFDIQDTYMHWVRQRPGQGLEWIGRIDPASGHTKYDPKFQVRATITTDTSTSTAYLELSSLRSEDTAVYYCARSGGLPDVWGQGTTVTVSS
VL: EIVLTQSPGTLSLSPGERATLSCRASSSVSYMYWYQQKPGQAPRPLIYATSNLASGIPDRFSGSGSGTDFTLTISRLEPEDFAVYYCQQWEGNPRTFGGGTKLEIK
B2: anti-TL1A antibody A219 (antibody, V domains shown)
VH: B1 VH with R38K, I48M, A68V, T72R, A79V
VL: B1 VL
notes: Humanized monoclonal IgG1 with a kappa light chain, designed to abolish effector functions
B3: A147 (antibody, IgG1, V domains shown)
VH: QVQLVQSGAEVKKPGASVKVSCKASGFDIQDTYMHWVKQRPGQGLEWMGRIEPASGHIKYDPKFQGRVTMTRDTSTSTVYMELSSLRSEDTAVYYCARSGGLPDWWGQGTTVTVSS
VL: B1 VL
B4: A224 (antibody, IgG1, V domains shown)
VH: B3 VH with Q1E, R40A
VL: B1 VL
B5: A222 (antibody, IgG1, V domains shown)
VH: B1 VH with R38K, I48M, A68V, T72R
VL: B1 VL
B6: A220 (antibody, IgG1, V domains shown)
VH: B1 VH with R38K, I48M, A68V, I70M, T72R
VL: B1 VL with L46W
B7: A213 (antibody, IgG1, V domains shown)
VH: B1 VH with I48M, A68V, A79V, L81M
VL: B1 VL
B8: A217 (antibody, IgG1, V domains shown)
VH: B3 VH with E52D, I58T, G66V, M70I, W105V
VL: B1 VL
B9: A223 (antibody, IgG1, V domains shown)
VH: B1 VH with Q1E
VL: B1 VL with P45L
B10: A218 (antibody, IgG1, V domains shown)
VH: B1 VH with R38K, I48M, A68V, T72R, L81M
VL: B1 VL
B11: anti-TL1A antibody with heavy chain SEQ ID NO: 380 (IgG4, S228P, F234A, L235A; Fc SEQ ID NO: 367) and light chain SEQ ID NO: 381 (antibody)
heavy: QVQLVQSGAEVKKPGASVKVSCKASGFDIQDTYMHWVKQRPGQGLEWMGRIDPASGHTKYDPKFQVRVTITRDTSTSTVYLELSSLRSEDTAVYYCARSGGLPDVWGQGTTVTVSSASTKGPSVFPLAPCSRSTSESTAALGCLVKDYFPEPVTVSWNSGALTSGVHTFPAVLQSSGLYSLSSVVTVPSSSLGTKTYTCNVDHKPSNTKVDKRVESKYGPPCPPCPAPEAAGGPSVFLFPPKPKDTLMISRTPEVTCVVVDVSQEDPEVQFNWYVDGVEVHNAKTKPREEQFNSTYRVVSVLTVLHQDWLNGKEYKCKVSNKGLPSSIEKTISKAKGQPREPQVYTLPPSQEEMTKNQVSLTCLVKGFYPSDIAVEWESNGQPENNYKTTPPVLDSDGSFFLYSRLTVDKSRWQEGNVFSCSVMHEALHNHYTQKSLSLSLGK
light: EIVLTQSPGTLSLSPGERATLSCRASSSVSYMYWYQQKPGQAPRPLIYATSNLASGIPDRFSGSGSGTDFTLTISRLEPEDFAVYYCQQWEGNPRTFGGGTKLEIKRTVAAPSVFIFPPSDEQLKSGTASVVCLLNNFYPREAKVQWKVDNALQSGNSQESVTEQDSKDSTYSLSSTLTLSKADYEKHKVYACEVTHQGLSSPVTKSFNRGEC
B12: recombinant human TL1A protein (tumor necrosis factor-like cytokine 1A) (ligand, UniProt O95150 72-251, looked up)
chain: T1 sequence (looked up)
notes: Recombinant protein used in ELISA, SPR and the TF-1 caspase assay; also called TNFSF15; soluble TL1A

Where a chain is given by its changes, count along the chain named. Names and notes keep the numbering of the source.

In assay [1] the target is T1, TL1A in human blood. Put plainly: cell-based or functional assay.
For assay [2], the target named is T1, TL1A in human blood. The assay is described as follows: cell-based or functional assay. The source holds these as a separate data set.
Another assay has as its target T2, human TL1A. Put plainly: ELISA titration on plate-coated human TL1A, unpurified culture supernatant.
In the next assay the target is T3, TNFSF6 (FasL). Put plainly: ELISA. An excerpt:
(§1) TL1A is the only known ligand for its functional receptor DR3. TL1A is also capable of binding to Decoy receptor 3 (DcR3), a soluble TNF receptor without a transmembrane domain.

The target in another assay is TNFSF10 (TRAIL) (human, UniProt P50591 114-281, limits assumed). The assay is described as follows: ELISA.
Sequence of TNFSF10 (TRAIL) (P50591 114-281 limits assumed): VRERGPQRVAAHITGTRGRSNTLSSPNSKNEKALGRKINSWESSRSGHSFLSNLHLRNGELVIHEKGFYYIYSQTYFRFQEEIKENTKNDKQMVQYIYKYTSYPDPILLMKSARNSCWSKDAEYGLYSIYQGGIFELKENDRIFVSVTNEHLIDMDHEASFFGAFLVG
Source text: as §1
In general terms: In an ELISA, binding on a coated surface is turned into a signal by an enzyme label.

The next assay concerns the target TNFSF14 (LIGHT) (UniProt O43557 74-240, limits assumed). Put plainly: ELISA.
Source text: as §1

Assay [3] addresses T4, cynomolgus monkey TL1A protein. The assay is described as follows: cell-based or functional assay.
For assay [4] the target is unchanged. The assay is described as follows: ELISA on recombinant TL1A protein; cynomolgus monkey TL1A.
Assay [5] addresses B12. Put plainly: surface plasmon resonance (SPR), recombinant TL1A protein.
Assay [6] addresses T4, cynomolgus monkey TL1A protein. The assay is described as above.
For assay [7], the target named is T5, membrane-bound human TL1A on …. The assay is described as follows: binding to TNFSF15/HEK293 cells stably transfected with human TL1A.
The target of assay [8] is T6, rat recombinant TL1A protein. The assay is described as follows: ELISA, titration of the antibody on recombinant rat TL1A, A450 nm against [Ab] (nM), log axis. The procedure: (§2) ELISA for each protein was performed at least three times. The data from a representative experiment are shown and are mean±SD. Abbreviations: A=absorbance, Ab=antibody, Cyno=cynomolgus, nm=nanometer, nM=nanomolar. […] Samples were assayed in triplicate, on two separate occasions. Data presented are the mean TL1A concentrations of three animals per group±SD.

Assay [9] concerns the target T7, mouse recombinant TL1A protein. Put plainly: ELISA, titration of the antibody on recombinant mouse TL1A, A450 nm against [Ab] (nM), log axis. As for the experimental part: as §2
The target in another assay is T8, recombinant TL1A antigen. The assay is described as follows: ELISA titration against recombinant TL1A antigen.
In assay [10] the target is T9, DR3 (Death Receptor 3) natively …. Put plainly: TF-1 cell caspase activation assay. The source says: TF-1 cells are human erythroleukemic cells that natively express DR3, the functional receptor for TL1A.

Sequence of TNFSF14 (LIGHT) (O43557 74-240 limits assumed): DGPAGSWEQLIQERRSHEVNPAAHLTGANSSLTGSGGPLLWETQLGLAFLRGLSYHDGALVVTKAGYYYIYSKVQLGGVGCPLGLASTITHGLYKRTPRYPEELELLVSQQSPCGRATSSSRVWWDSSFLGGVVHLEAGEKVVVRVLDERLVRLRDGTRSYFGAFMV

Turning to B1, in the assay with TL1A in human blood [1], the “% Inhibition at 1 nM Ig; interferon gamma release in human blood” value (“% Inhibition at 1 nM Ig” below) stood at 46.8% and the “% Inhibition at 10 nM Ig; interferon gamma release in human blood” value (“% Inhibition at 10 nM Ig” for short) amounted to 71.2%. For the same molecule, the “IC50 values, Mean; inhibition of interferon gamma release from multiple human donors” value with TL1A in human blood [2] is 51.3. The molecule further gave a Kd with human TL1A of 0.05 nM.

With B2, the binding result with TNFSF6 (FasL) is “no binding”; with TNFSF10 (TRAIL), “no binding”; in the assay with TNFSF14 (LIGHT), “no binding”; in assay [8] it was “no binding (tested: about 30 nM)”; in [9], “no binding (tested: about 30 nM)”. The “IC50 of inhibition of TL1A-induced caspase activation in cycloheximide-treated TF-1 cells” value in assay [3] is 0.59 nM. Moreover, the “mean IC50 of inhibition of IFN-gamma release in monkey whole blood stimulated with immune complex, IL-12 and IL-18” value in [3] stood at 1.54 nM. In addition, the EC50 in assay [4] came to 0.47 nM; in assay [7], 17.4 nM. Moreover, the dissociation constant (Kd) was 0.06 nM in assay [5] and 0.04 nM in assay [6].

Regarding B3, in the assay with TL1A in human blood [1], the “% Inhibition at 1 nM Ig” value worked out at 51.3% and the “% Inhibition at 10 nM Ig” value turned out to be 72.4%.

Molecule B4 showed a Kd with human TL1A of 0.076 nM.

Regarding B5, in the assay with human TL1A, the Kd was 0.06 nM.

As for B6, in the assay with TL1A in human blood [1], the “% Inhibition at 1 nM Ig” value came out at 36.9% and the “% Inhibition at 10 nM Ig” value was determined as 63.2%. This molecule gave a Kd in the assay with human TL1A of 0.05 nM.

Consider B7, for which, in the assay with TL1A in human blood [1], the “% Inhibition at 1 nM Ig” value is 48.6% and the “% Inhibition at 10 nM Ig” value is 69.8%. In addition, in the assay with TL1A in human blood [2], the “IC50 values, Mean; inhibition of interferon gamma release from multiple human donors” value is 46.8. The Kd with human TL1A came to 0.049 nM.

Turning to B8, in the assay with TL1A in human blood [1], the “% Inhibition at 1 nM Ig” value was determined as 46% and the “% Inhibition at 10 nM Ig” value is 72.2%. This molecule registered an equilibrium dissociation constant (Kd) in the assay with human TL1A of 0.043 nM.

B9: in the assay with human TL1A, the Kd was 0.062 nM.

In the assay with human TL1A, B10 had a dissociation constant (Kd) of 0.051 nM.

On to B11, for which the EC50 in the assay with recombinant TL1A antigen turned out to be 0.252 nM.

As to B12, the binding result in assay [10] is listed as “binds”.

By % Inhibition is commonly meant how much of the control response was suppressed. In general, Kd refers to the concentration at which binding is half-saturated. One may read the EC50 as the concentration at which the effect is half-maximal.
